From the DeepSol protein solubility set

Experiment: soluble on expression in E. coli; label from the status in PepcDB or PDB records

Sequence	soluble on expression in E. coli
MSLAYGNINQPFSLESLPDELIPENLYQIETDSSRVFQRHQCRRLAHLLLFQLLKIAGKSTALLSQIHRTESGRPYFLDERIDFNISHSGDWVAVILDIRNEEKSAVGIDIEFPKIRNFTALMEHIAPKEEIDWFHHQQDSLNAFYRCWCLREAVLKSQGFGIVKLSNVRHFPEQQKIFSDYCPQGQLWFTDELPIYLAAFVNHQEKLPHFYEWNRESLQIKELEKYVLYEVNEGHHHHHH	not soluble
MVFCGDDVATGVRDAITYCYRCKGRKVTLSDHEADDDNKPIGDFDYDHEVVVFEIRSRAMEKLRKKRRTGMEGLTYKFVKEYDIENEFCSVRSSFSECCMSDISIEGYMTAKTEFSRSSSLKGLELENQWKMHYVNEIKKGSVIQEFCHCQGWPFGLGRKAALLPPLPKSPAESWSWRKPTRVTPVPFV	soluble
MAQAKHKQRKRLKSSCKRHPLYVDFSDVGWNDWIVAPPGYHAFYCHGECPFPLADHLNSTNHAIVQTLVNSVNSKIPKACCVPTELSAISMLYLDENEKVVLKNYQDMVVEGCGCR	soluble
MSLSNAEITHREGVKMLVVRPISMADYEALHTCAVESGHGFTSLPVDQELLTNRITHSEYSFSKPNVTMPGDEGYLMVGVDTETGQVAGTTGIEASIGWDVPFYSYHISTIVHSSPKLGVNNVVKLLTFGNNYTGCSEICTLFLRPQYRQGLNGRLMSKCRFLMMAEHSHRFSKTIFAEMRGVSDADGNSPFWKWLQEHFFSIDFTLADYLTGIGKKGFIADLMPKLPIYVNLLSKEAQAVIGQVHENTRPALVLLEKEGFTCRNYVDIFDAGPTVECELNNIESVRHSVRAIVEVAEHSSSQNFIMCNTSFENFRATAAKAAYSQEDNAVIISPKVAAALEVSTGDYLRILAQEGHHHHHH	soluble
MGSDKIHHHHHHMPDNANIAASHTQAHGSSYDDKPTQPQCDSIKLNEIGPNLLEPRAIEPSATKPNAIKHESVITKQKQKVIFIGLPRTGTTSVSVALLEQGLKVAHMAFTKEAFMQADAISDAPCFSDFKQLDELFPKAKFVYLDRELDSWVPSMQMLLSRMLPHLDAKIGRFHPIMKRSFRHTFGVGVVENPQDEQHLIDCYQHHKTEVFNYFAGRQDLLSIDVSQQGALGQLLAFMELTSAENHNLSFPKLNVGRNVASWDEYKHPNKISANAAGPEKRKYFDYKV	not soluble
GSCSSKPANTAKGEKGSDKTGKDLELKLSFQEGIAPGESLNEKLDFMEKLGVVGFEPGGGGLAGRVNEIKQALNGRNIKVSAICAGFKGFILSTDPAIRKECMDTMKEIIAAAGELGSTGVIIVPAFNGQVPALPHTMETRDFLCEQFNEMGTFAAQHGTSVIFEPLNRKECFYLRQVADAASLCRDINNPGVRCMGDFWHMTWEETSDMGAFISGGEYLQHVHVASRKRRSMPGEDGDADNYINGFKGLKMIGYNNYVSFECGCQGDRNVVVPAAVKLLREQWEQA	soluble
SNANCKKIGEDSKIIIRQITDNDLELLMAWRSNPLIYKFFYIQKEPLKWEEHYSWWMSRENRVDWIILLRENNTIRKVGSVNVSQLNTDNPEIGILIGEFFLWGKHIGRHSVSLVLKWLKNIGYKKAHARILENNIRSIKLFESLGFKKTKKGRENEWIYEVNL	soluble
MIILQGNKLERSFSGDVLFQNISLQVDERDRIALVGPNGAGKSTLLKLLVGEETPTSGEVNTKKDLTLSYLAQNSRFESDQTIYEEMLKVFEALRQDEKRLRQMEMDMATVSGQVLTRLMTDYDLLTEHFRQQGGFTYESDIKAILNGFKFDESMWQMTIAELSGGQNTRLALAKMLLEKPELLVLDEPTNHLDIETIAWLENYLANYQGALIIVSHDRYFLDKVATVTLDLTPNGLDRYSGNYSRFMALKAEKLVAEEKQFDKQQKEIAKLEDFVQKNIVRASTTKRAQARRKQLEKIERLDKPTGGRKSAHMTFHAEKPSGNVVLRVEEAAIGYGDQVLSEPINVDINKLDAIAVVGPNGIGKSTLIKSIIGQLPLLKGQLKYGANVETGYYDQTQSHLTSSNTVLEELWQDFSTTPEVDIRNRLGAFLFSGDDVKKSVAMLSGGEKARLLLAKLSMENNNFLVLDEPTNHLDIDSKEVLENALIDFDGTLLFVSHDRYFINRLATKVLEITENGSTLYLGDYDYYLEKKAELEELARLAAGETVEETKEASATDYQLQKANQKERRRLTRRYEEIEARLETIEERIGAIQEDMHASNDTAQLIAWQKEWDQLDQEQEALMEEWETIAEQIES	not soluble
MLSNQQIRNFSRGVGHLRRRAAKNNVIKVRPEELRPFFNQYSVLPNGIQNDADAKLFSKELQPGERKLLFDALRKITADQYNDHKKVVEVTIDHEDLVKVWYINFIPMFVYGCLDEAFLIIGGESINK	not soluble
